Legend:
[1] = target: 64 other human C4 ZF containing proteins
[2] = target: GST-TAB2 protein substrate [GST: P08515]

B1: wild-type NleE (EPEC NleE) (protein)
chain: MINPVTNTQGVSPINTKYAEHVVKNIYPEIKHDYFNESPNIYDKKYISGITRGVAELKQEEFVNEKARRFSYMKTMYSVCPEAFEPISRNEASTPEGSWLTVISGKRPMGQFSVDSLYNPDLHALCELPDICCKIFPKENNDFLYIVVVYRNDSPLGEQRANRFIELYNIKRDIMQELNYELPELKAVKSEMIIAREMGEIFSYMPGEIDSYMKYINNKLSKIE
In the case of B1, the “modification by NleE (cysteine methylation assay)” value [1] is reported as “But few of them were modified by NleE”.

B2: NLeE from Shigella (Shigella NleE) (protein)
chain: GSMRKKRRQRRRSIEIKMISPIKNIKNVFPINTANTEYIVRNIYPRVEHGYFNESPNIYDKKYISGITRSMAQLKIEEFINEKSRRLNYMKTMYSPCPEDFQPISRDEASTPEGSWLTVISGKRPMGQFSVDSLYHPDLHALCELPEISCKIFPKENSDFLYIIVVFRNDSPQGELRANRFIELYDIKREIMQVLRDESPELKSIKSEIIIAREMGELFSYASEEIDSYIKQMNDRLSQIKARMPVTGSRS
In the case of B2, the “methylase activity (MTase glo assay)” value [2] is reported as “the Shigella NleE showed methylase activity at levels comparable to that seen for the EPEC NleE”.

Reference: US20220306702
